The results in this text go back to PMC10786891, “Massively parallel profiling of RNA-targeting CRISPR-Cas13d”.

Changes are numbered by the printed parent chain. Names may count otherwise.

The labels stand for the following.
T1: EsCas13d, nuclease-dead (Eubacterium siraeum, UniProt B0MS50, R295A;H300A;R849A;H854A)
T1 sequence: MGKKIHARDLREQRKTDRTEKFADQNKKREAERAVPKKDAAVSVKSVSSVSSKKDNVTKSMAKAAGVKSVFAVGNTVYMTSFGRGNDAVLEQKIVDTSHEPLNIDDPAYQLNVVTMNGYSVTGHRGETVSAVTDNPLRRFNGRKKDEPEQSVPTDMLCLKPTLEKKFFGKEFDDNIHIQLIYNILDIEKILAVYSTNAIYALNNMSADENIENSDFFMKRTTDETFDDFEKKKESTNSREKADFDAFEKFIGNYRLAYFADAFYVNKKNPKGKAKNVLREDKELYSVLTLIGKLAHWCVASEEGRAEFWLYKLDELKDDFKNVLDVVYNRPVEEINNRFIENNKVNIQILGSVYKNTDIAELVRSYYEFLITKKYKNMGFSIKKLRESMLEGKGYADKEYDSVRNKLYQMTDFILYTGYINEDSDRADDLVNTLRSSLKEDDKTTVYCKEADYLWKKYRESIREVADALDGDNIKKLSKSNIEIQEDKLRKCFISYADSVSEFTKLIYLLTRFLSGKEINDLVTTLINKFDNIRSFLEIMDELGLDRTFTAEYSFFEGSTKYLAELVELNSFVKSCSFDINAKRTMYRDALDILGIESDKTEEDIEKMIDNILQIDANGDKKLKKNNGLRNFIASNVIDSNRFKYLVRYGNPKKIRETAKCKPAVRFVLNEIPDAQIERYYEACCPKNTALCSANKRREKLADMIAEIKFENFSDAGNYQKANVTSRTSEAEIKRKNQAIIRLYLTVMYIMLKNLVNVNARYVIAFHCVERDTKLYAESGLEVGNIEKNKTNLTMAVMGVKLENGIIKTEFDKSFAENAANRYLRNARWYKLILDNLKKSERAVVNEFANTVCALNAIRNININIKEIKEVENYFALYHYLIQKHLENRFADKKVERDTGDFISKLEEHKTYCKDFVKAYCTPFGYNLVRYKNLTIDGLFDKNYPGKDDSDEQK

B1: target 1 G15A,C22A (mixed)
RNA 1: CACCCGUGCAAAAAUGCAGGGGUCUAAAACUGAGCGGAUAACCUCUCUAUGG
RNA 2: GGGAAUGGAUCCACAUCUACGAAUUCGUAACAUAGAAAGGUUAUCCGCUCACCGAGAUCGGAAGAGCACACGU
B2: target 1 insA 3' of 21,insC 3' of 8 (mixed)
RNA 1: B1 RNA 1
RNA 2: GGGAAUGGAUCCACAUCUACGAAUUCGUACCAAUAGAGAGGUUAUCCCGCUCACCGAGAUCGGAAGAGCACACGU
B3: target 1 insC 3' of 9,insA 3' of 3 (mixed)
RNA 1: B1 RNA 1
RNA 2: GGGAAUGGAUCCACAUCUACGAAUUCGUACCAUAGAGAGGUUACUCCGCUACACCGAGAUCGGAAGAGCACACGU
B4: target 2 MT 5'PFS CAU 3'PFS CGA (mixed)
RNA 1: CACCCGUGCAAAAUUGCAGGGGUCUAAAACCUUCUCCAAAUUGUUUCAUCCU
RNA 2: GGGAAUGGAUCCACAUCUACGAAUUCCAUAGGAUGAAACAAUUUGGAGAAGCGAAGAUCGGAAGAGCACACGU
B5: target 2 MT 5'PFS GGC 3'PFS UCU (mixed)
RNA 1: B4 RNA 1
RNA 2: B4 RNA 2 with C27G, A28G, U29C, C52U, G53C, A54U
B6: target 2 MT 5'PFS UAG 3'PFS ACU (mixed)
RNA 1: B4 RNA 1
RNA 2: B4 RNA 2 with C27U, U29G, C52A, G53C, A54U
B7: target 2 MT 5'PFS UUG 3'PFS UGU (mixed)
RNA 1: B4 RNA 1
RNA 2: B4 RNA 2 with C27U, A28U, U29G, C52U, A54U
B8: target 2 MT 5'PFS GAG 3'PFS UUC (mixed)
RNA 1: B4 RNA 1
RNA 2: B4 RNA 2 with C27G, U29G, C52U, G53U, A54C
B9: target 2 MT 5'PFS GGC 3'PFS UCA (mixed)
RNA 1: B4 RNA 1
RNA 2: B4 RNA 2 with C27G, A28G, U29C, C52U, G53C
B10: target 2 MT 5'PFS CGG 3'PFS CGC (mixed)
RNA 1: B4 RNA 1
RNA 2: B4 RNA 2 with A28G, U29G, A54C
B11: target 2 MT 5'PFS GAA 3'PFS UCU (mixed)
RNA 1: B4 RNA 1
RNA 2: B4 RNA 2 with C27G, U29A, C52U, G53C, A54U
B12: target 2 MT 5'PFS UAG 3'PFS ACA (mixed)
RNA 1: B4 RNA 1
RNA 2: B4 RNA 2 with C27U, U29G, C52A, G53C
B13: target 2 MT 5'PFS UGC 3'PFS AUG (mixed)
RNA 1: B4 RNA 1
RNA 2: B4 RNA 2 with C27U, A28G, U29C, C52A, G53U, A54G
B14: target 2 MT 5'PFS GAG 3'PFS UUU (mixed)
RNA 1: B4 RNA 1
RNA 2: B4 RNA 2 with C27G, U29G, C52U, G53U, A54U
B15: target 2 MT 5'PFS UGC 3'PFS AUC (mixed)
RNA 1: B4 RNA 1
RNA 2: B4 RNA 2 with C27U, A28G, U29C, C52A, G53U, A54C
B16: target 2 MT 5'PFS UUA 3'PFS GCA (mixed)
RNA 1: B4 RNA 1
RNA 2: B4 RNA 2 with C27U, A28U, U29A, C52G, G53C
B17: target 2 MT 5'PFS GUG 3'PFS UUA (mixed)
RNA 1: B4 RNA 1
RNA 2: B4 RNA 2 with C27G, A28U, U29G, C52U, G53U
B18: target 2 MT 5'PFS UUG 3'PFS UGC (mixed)
RNA 1: B4 RNA 1
RNA 2: B4 RNA 2 with C27U, A28U, U29G, C52U, A54C
B19: target 2 MT 5'PFS GGC 3'PFS UCC (mixed)
RNA 1: B4 RNA 1
RNA 2: B4 RNA 2 with C27G, A28G, U29C, C52U, G53C, A54C
B20: target 2 MT 5'PFS GUA 3'PFS CGG (mixed)
RNA 1: B4 RNA 1
RNA 2: B4 RNA 2 with C27G, A28U, U29A, A54G
B21: target 2 MT 5'PFS UUA 3'PFS GCC (mixed)
RNA 1: B4 RNA 1
RNA 2: B4 RNA 2 with C27U, A28U, U29A, C52G, G53C, A54C
B22: target 2 MT 5'PFS GUG 3'PFS UUU (mixed)
RNA 1: B4 RNA 1
RNA 2: B4 RNA 2 with C27G, A28U, U29G, C52U, G53U, A54U
B23: target 2 MT 5'PFS AAU 3'PFS UCG (mixed)
RNA 1: B4 RNA 1
RNA 2: B4 RNA 2 with C27A, C52U, G53C, A54G
B24: target 2 MT 5'PFS UGC 3'PFS AUA (mixed)
RNA 1: B4 RNA 1
RNA 2: B4 RNA 2 with C27U, A28G, U29C, C52A, G53U
B25: target 2 MT 5'PFS UAG 3'PFS ACG (mixed)
RNA 1: B4 RNA 1
RNA 2: B4 RNA 2 with C27U, U29G, C52A, G53C, A54G
B26: target 2 MT 5'PFS UCA 3'PFS UUA (mixed)
RNA 1: B4 RNA 1
RNA 2: B4 RNA 2 with C27U, A28C, U29A, C52U, G53U
B27: target 2 MT 5'PFS GCG 3'PFS CGG (mixed)
RNA 1: B4 RNA 1
RNA 2: B4 RNA 2 with C27G, A28C, U29G, A54G
B28: target 2 MT 5'PFS GGU 3'PFS UAC (mixed)
RNA 1: B4 RNA 1
RNA 2: B4 RNA 2 with C27G, A28G, C52U, G53A, A54C
B29: target 2 MT 5'PFS GAA 3'PFS UCG (mixed)
RNA 1: B4 RNA 1
RNA 2: B4 RNA 2 with C27G, U29A, C52U, G53C, A54G
B30: target 2 MT 5'PFS GGC 3'PFS UCG (mixed)
RNA 1: B4 RNA 1
RNA 2: B4 RNA 2 with C27G, A28G, U29C, C52U, G53C, A54G
B31: target 2 MT 5'PFS UCA 3'PFS UUC (mixed)
RNA 1: B4 RNA 1
RNA 2: B4 RNA 2 with C27U, A28C, U29A, C52U, G53U, A54C
B32: target 2 MT 5'PFS GUG 3'PFS UUC (mixed)
RNA 1: B4 RNA 1
RNA 2: B4 RNA 2 with C27G, A28U, U29G, C52U, G53U, A54C
B33: target 2 MT 5'PFS AUU 3'PFS CAC (mixed)
RNA 1: B4 RNA 1
RNA 2: B4 RNA 2 with C27A, A28U, G53A, A54C
B34: target 2 MT 5'PFS CGG 3'PFS CGA (mixed)
RNA 1: B4 RNA 1
RNA 2: B4 RNA 2 with A28G, U29G
B35: target 2 MT 5'PFS UAG 3'PFS ACC (mixed)
RNA 1: B4 RNA 1
RNA 2: B4 RNA 2 with C27U, U29G, C52A, G53C, A54C
B36: target 2 MT 5'PFS GAA 3'PFS UCC (mixed)
RNA 1: B4 RNA 1
RNA 2: B4 RNA 2 with C27G, U29A, C52U, G53C, A54C

In this data set the target is T1, EsCas13d, nuclease-dead. Kind of data set: crRNA (strand 1, pre-loaded); Mg2+; 40 mM Tris-HCl pH 7.5, 150 mM NaCl, 6 mM MgCl2, 1 mM DTT, 0.1% Tween-20, 0.2 mg/ml BSA; 25 C; 10 min per concentration, then washed. The following applies: tags: His6-TwinStrep-SUMO cleaved; N-terminal SNAP kept (SNAP-Surface 488); label: 3' end held by stalled T7 RNA polymerase.
What is called Kd is the constant that tells how readily two partners part at equilibrium. Lower therefore signals tighter binding. The molecule B1 yielded a Kd of 20.6 ± 2.7 nM.

Consider B2, for which the Kd was found to be 21.5 ± 1.1 nM.

Take B3: the Kd worked out at 11.1 ± 0.6 nM.

B4 gave a dissociation constant (Kd) of 3.8 ± 0.7 nM.

The molecule B5 registered a Kd of 18.9 ± 1.7 nM.

As for B6, binding was characterised by a dissociation constant (Kd) of 4.5 ± 0.5 nM.

B7: the Kd is 16.8 ± 1.9 nM.

On to B8, for which the Kd came out at 15.7 ± 2.5 nM.

In turn, B9 yielded a Kd of 20.6 ± 3.1 nM.

Regarding B10, the dissociation constant Kd came out at 3.81 ± 0.28 nM.

As to B11, the Kd came out at 30 ± 9 nM.

For B12, binding was characterised by a dissociation constant (Kd) of 3 ± 0.5 nM.

Molecule B13 had a Kd of 28 ± 6 nM.

With B14, the Kd was found to be 18 ± 2.2 nM.

For B15, the Kd is 33 ± 7 nM. This Kd lies about 1.8-fold higher than the previous one.

As for B16, binding was put at a Kd of 14.7 ± 2.1 nM. Compared with the last molecule, the Kd is about 2.2-fold lower.

B17 displayed a Kd of 22.5 ± 3.2 nM.

B18 showed a Kd of 14.1 ± 2.2 nM. Compared with the last molecule, the Kd is about 1.6-fold lower.

For the molecule B19, the Kd turned out to be 36 ± 9 nM. This Kd lies about 2.6-fold higher than the previous one.

In turn, B20 had a Kd of 6.9 ± 0.4 nM. Against the preceding molecule, the Kd is about 5.2-fold lower.

Consider B21, for which the Kd was determined as 37 ± 12 nM.

Molecule B22 gave a Kd of 61 ± 13 nM.

B23: the Kd amounted to 6.4 ± 1 nM.

On to B24, for which the Kd is 28 ± 9 nM.

B25 showed a Kd of 3.12 ± 0.29 nM.

As to B26, binding was put at a Kd of 7.2 ± 1.1 nM.

In turn, B27 came in with a Kd of 11.9 ± 1.2 nM.

On to B28, for which binding was put at a Kd of 15.9 ± 1.8 nM.

Take B29: binding was put at a Kd of 13.1 ± 1.6 nM.

Molecule B30 came in with a Kd of 19.8 ± 3.1 nM. Against the preceding molecule, the Kd is about 1.5-fold higher.

On to B31, for which binding was characterised by a dissociation constant (Kd) of 10.3 ± 2.3 nM.

With B32, binding was characterised by a dissociation constant (Kd) of 27 ± 4 nM. Compared with the last molecule, the Kd is about 2.6-fold higher.

B33: binding was characterised by a dissociation constant (Kd) of 7.2 ± 0.7 nM.

B34: the Kd was determined as 3 ± 0.3 nM.

B35: the Kd is 7.3 ± 2.1 nM. This Kd lies about 2.4-fold higher than the previous one.

In turn, B36 came in with a Kd of 32 ± 6 nM.
